Data set [1] has as its target T1, CLUST.143952 3300028591 effector (Ga0247611_10000032_233) (uncultured metagenome (sheep rumen)).
T1 chain: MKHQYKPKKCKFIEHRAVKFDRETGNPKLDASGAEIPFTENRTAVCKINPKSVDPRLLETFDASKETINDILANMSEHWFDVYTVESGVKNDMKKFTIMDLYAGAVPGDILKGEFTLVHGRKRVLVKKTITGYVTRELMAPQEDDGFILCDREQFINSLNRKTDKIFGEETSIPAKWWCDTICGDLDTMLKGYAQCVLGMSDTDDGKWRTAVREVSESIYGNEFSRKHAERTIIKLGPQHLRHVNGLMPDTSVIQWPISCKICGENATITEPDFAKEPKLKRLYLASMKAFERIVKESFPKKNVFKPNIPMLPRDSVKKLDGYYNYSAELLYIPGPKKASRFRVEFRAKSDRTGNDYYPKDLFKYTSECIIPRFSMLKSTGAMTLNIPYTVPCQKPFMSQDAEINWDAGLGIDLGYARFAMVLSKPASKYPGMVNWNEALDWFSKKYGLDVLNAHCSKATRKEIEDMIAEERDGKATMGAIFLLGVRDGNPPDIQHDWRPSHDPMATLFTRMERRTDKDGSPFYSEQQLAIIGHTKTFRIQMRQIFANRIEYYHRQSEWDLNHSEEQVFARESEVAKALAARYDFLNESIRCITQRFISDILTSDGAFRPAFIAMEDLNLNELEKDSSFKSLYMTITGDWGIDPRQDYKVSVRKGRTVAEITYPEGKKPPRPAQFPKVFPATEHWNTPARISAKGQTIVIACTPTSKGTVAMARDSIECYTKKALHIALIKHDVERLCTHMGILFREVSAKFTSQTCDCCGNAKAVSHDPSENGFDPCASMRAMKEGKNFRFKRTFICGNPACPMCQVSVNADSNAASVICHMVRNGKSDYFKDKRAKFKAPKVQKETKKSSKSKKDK
Nature of the data set: PAM 5'-G-3'; 37 C, in vitro transcription/translation; ratio normalised to non-target guide (SEQ 93). The following applies: tags: FDA assay, one-pot in vitro transcription/translation. An excerpt:
(§1) In this assay, an active CRISPR system designed to target GFP binds and cleaves the double-stranded DNA region encoding GFP, resulting in depletion of GFP fluorescence. The FDA assay involves in vitro transcription and translation, allowing production of an RNP from a DNA template encoding a CLUST.143952 effector and a DNA template containing a pre-crRNA sequence under a T7 promoter with direct repeat (DR)-spacer-direct repeat (DR); the spacer targeted GFP. In the same one-pot reaction, GFP and RFP were also produced as both the target and the fluorescence reporter (FIG. 8A). The target GFP plasmid sequence is set forth in SEQ ID NO: 86, and the RFP plasmid sequence is set forth in SEQ ID NO: 87. GFP and RFP fluorescence values were measured every 20 min at 37° C. for 12 hr, using a TECAN Infinite F Plex plate reader. Since RFP was not targeted, its fluorescence was not affected and was therefore used as an internal signal control.
(§2) 2 GFP targets (plus 2 non-targets) were designed for the effector of SEQ ID NO: 1. RNA guide sequences (pre-crRNAs for Target 1 and Non-Target 2 and mature crRNAs for Target 3 and Non-Target 4), target sequences, and the non-target control sequences used for the FDA assay are listed in TABLE 9. […]
(§3) GFP signal was normalized to RFP signal, then the average fluorescence of three technical replicates was taken at each time point. […]

In data set [2] the target is T1, CLUST.143952 3300028591 effector …. Nature of the data set: PAM 5'-G-3'; 37 C, in vitro transcription/translation; ratio normalised to non-target guide (SEQ 90). To be noted: tags: FDA assay, one-pot in vitro transcription/translation.
Description: as §1, §2, §3

B1: mature crRNA Target 3 ; GFP Target 3 (ssRNA ; dsDNA)
RNA: UAUGGUAGAGGUGCCACCGGUUUACAUGGCGCCGAUACCAAGGUAUGAAAUUUAUCAUUAAAG
DNA 1: AAGGTATGAAATTTATCATTAAAG
DNA 2: CTTTAATGATAAATTTCATACCTT
On to B1, for which the activity in data set [1] was over 1 GFP depletion ratio.

B2: pre-crRNA Target 1 (DR-spacer-DR) ; GFP Target 1 (ssRNA ; dsDNA)
RNA: UAUGGUAGAGGUGCCACCGGUUUACAUGGCGCCGAUACCAAGGUAUGAAAUUUAUCAUUAAAGGCGUAUGGUAGAGGUGCCACCGGUUUACAUGGCGCCGAUACCUAACCCCUCUCUAAACGGAGGGGUUU
DNA 1: AAGGTATGAAATTTATCATTAAAGGCG
DNA 2: CGCCTTTAATGATAAATTTCATACCTT
Turning to B2, the activity in data set [2] was over 1 GFP depletion ratio.
